# Reference: patent US20150344570A1 (published 2015)
# What was measured:
# [1] = target: T1, FcγRIIa R (FcγRIIa allotype with Arg at position 131), extracellular domain with C-terminal His tag (human, UniProt P12318 34-217); experiment: SPR (Biacore), antibody captured, FcγR analyte; vs GpH7-A5/GpH7-B3/GpL16-k0 = 100
# T1 construct: extracellular domain; made in FreeStyle293 cells; analyte in the Biacore assay; also called FcγRIIa type R; 2aR
# T1 sequence (looked up): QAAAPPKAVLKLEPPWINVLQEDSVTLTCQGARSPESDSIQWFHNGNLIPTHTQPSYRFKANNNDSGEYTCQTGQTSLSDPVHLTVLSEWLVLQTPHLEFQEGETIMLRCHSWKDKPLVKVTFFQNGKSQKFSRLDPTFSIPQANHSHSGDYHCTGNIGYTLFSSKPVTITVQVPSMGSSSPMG
# Description: (§1) The heterodimerized antibodies He Abs in which one of the H chains was introduced with an alteration were assayed for their binding activities to each activating FcγR and inhibitory FcγR according to the method described in Example 4. […] The activating FcγRs in FIGS. 26, 27, 28, and 29 are FcγRIa, FcγRIIa (R), FcγRIIa (H), and FcγRIIIa, respectively.
# (§2) Analysis of interaction between objective antibody and the FcγR was carried out using Biacore T100 (GE Healthcare). HBS-EP+ (GE Healthcare) was used as the running buffer, and the measurement temperature was set to 25° C. Chips produced by immobilizing the antigen peptide by the amine coupling method to a Series S Sencor Chip CM5 (GE Healthcare), or alternatively, chips produced by allowing preliminarily biotinylated antigen peptides to interact with and immobilize onto a Series S Sensor Chip SA (certified) (GE Healthcare) were used. Antibodies of interest were captured onto an antigen peptide-immobilized chip, and allowed to interact to each FcγR diluted with running buffer. To regenerate and repeatedly use the chip, the antibodies captured on the chip were washed off by reacting 10 mM glycine-HCl, pH 1.5.
# [2] = target: T2, FcγRIIb, extracellular domain with C-terminal His tag (human, UniProt P31994 43-217); experiment: as above
# T2 construct: extracellular domain; made in FreeStyle293 cells; analyte in the Biacore assay; also called 2b; FcgRIIb
# T2 sequence (looked up): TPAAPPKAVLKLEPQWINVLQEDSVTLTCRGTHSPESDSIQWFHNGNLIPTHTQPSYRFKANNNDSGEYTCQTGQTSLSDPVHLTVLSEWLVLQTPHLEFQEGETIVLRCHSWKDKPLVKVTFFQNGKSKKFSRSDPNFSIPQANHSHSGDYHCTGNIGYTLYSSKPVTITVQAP
# Description: as §1, §2
Binder,He/Con_2aR [1],He/Con_2b [2]
"GpH7-A5/GpH7-B3 variant H268_11K/GpL16-k0 (antibody, human IgG1, kappa, heterodimerized IgG1, mutation in one H chain only; also called He Ab) heavy 1: not shown heavy 2: not shown light: DIVMTQSPLSLPVTPGEPASISCQASESLVHSNRNTYLHWYLQKPGQSPQLLIYKVSNRFSGVPDRFSGSGSGTDFTLKISRVEAEDVGVYYCSQNTHVPPTFGQGTKVEIERTVAAPSVFIFPPSDEQLKSGTASVVCLLNNFYPREAKVQWKVDNALQSGNSQESVTEQDSKDSTYSLSSTLTLSKADYEKHKVYACEVTHQGLSSPVTKSFNRGEC",100 relative (HeCon Ab = 100),83 relative (HeCon Ab = 100)
"GpH7-A5/GpH7-B3 variant H268_12R/GpL16-k0 (antibody, human IgG1, kappa, heterodimerized IgG1, mutation in one H chain only; also called He Ab) heavy 1: not shown heavy 2: not shown light: DIVMTQSPLSLPVTPGEPASISCQASESLVHSNRNTYLHWYLQKPGQSPQLLIYKVSNRFSGVPDRFSGSGSGTDFTLKISRVEAEDVGVYYCSQNTHVPPTFGQGTKVEIERTVAAPSVFIFPPSDEQLKSGTASVVCLLNNFYPREAKVQWKVDNALQSGNSQESVTEQDSKDSTYSLSSTLTLSKADYEKHKVYACEVTHQGLSSPVTKSFNRGEC",105 relative (HeCon Ab = 100),89.8 relative (HeCon Ab = 100)
"GpH7-A5/GpH7-B3 variant I336_18N/GpL16-k0 (antibody, human IgG1, kappa, heterodimerized IgG1, mutation in one H chain only; also called He Ab) heavy 1: not shown heavy 2: not shown light: DIVMTQSPLSLPVTPGEPASISCQASESLVHSNRNTYLHWYLQKPGQSPQLLIYKVSNRFSGVPDRFSGSGSGTDFTLKISRVEAEDVGVYYCSQNTHVPPTFGQGTKVEIERTVAAPSVFIFPPSDEQLKSGTASVVCLLNNFYPREAKVQWKVDNALQSGNSQESVTEQDSKDSTYSLSSTLTLSKADYEKHKVYACEVTHQGLSSPVTKSFNRGEC",104 relative (HeCon Ab = 100),97.6 relative (HeCon Ab = 100)
"GpH7-A5/GpH7-B3 variant K326_12R/GpL16-k0 (antibody, human IgG1, kappa, heterodimerized IgG1, mutation in one H chain only; also called He Ab) heavy 1: not shown heavy 2: not shown light: DIVMTQSPLSLPVTPGEPASISCQASESLVHSNRNTYLHWYLQKPGQSPQLLIYKVSNRFSGVPDRFSGSGSGTDFTLKISRVEAEDVGVYYCSQNTHVPPTFGQGTKVEIERTVAAPSVFIFPPSDEQLKSGTASVVCLLNNFYPREAKVQWKVDNALQSGNSQESVTEQDSKDSTYSLSSTLTLSKADYEKHKVYACEVTHQGLSSPVTKSFNRGEC",103 relative (HeCon Ab = 100),89.2 relative (HeCon Ab = 100)
"GpH7-A5/GpH7-B3 variant L234_04F/GpL16-k0 (antibody, human IgG1, kappa, heterodimerized IgG1, mutation in one H chain only; also called He Ab) heavy 1: not shown heavy 2: not shown light: DIVMTQSPLSLPVTPGEPASISCQASESLVHSNRNTYLHWYLQKPGQSPQLLIYKVSNRFSGVPDRFSGSGSGTDFTLKISRVEAEDVGVYYCSQNTHVPPTFGQGTKVEIERTVAAPSVFIFPPSDEQLKSGTASVVCLLNNFYPREAKVQWKVDNALQSGNSQESVTEQDSKDSTYSLSSTLTLSKADYEKHKVYACEVTHQGLSSPVTKSFNRGEC",104 relative (HeCon Ab = 100),99.8 relative (HeCon Ab = 100)
"GpH7-A5/GpH7-B3 variant N325_10E/GpL16-k0 (antibody, human IgG1, kappa, heterodimerized IgG1, mutation in one H chain only; also called He Ab) heavy 1: not shown heavy 2: not shown light: DIVMTQSPLSLPVTPGEPASISCQASESLVHSNRNTYLHWYLQKPGQSPQLLIYKVSNRFSGVPDRFSGSGSGTDFTLKISRVEAEDVGVYYCSQNTHVPPTFGQGTKVEIERTVAAPSVFIFPPSDEQLKSGTASVVCLLNNFYPREAKVQWKVDNALQSGNSQESVTEQDSKDSTYSLSSTLTLSKADYEKHKVYACEVTHQGLSSPVTKSFNRGEC",105 relative (HeCon Ab = 100),95.9 relative (HeCon Ab = 100)
"GpH7-A5/GpH7-B3 variant N325_14T/GpL16-k0 (antibody, human IgG1, kappa, heterodimerized IgG1, mutation in one H chain only; also called He Ab) heavy 1: not shown heavy 2: not shown light: DIVMTQSPLSLPVTPGEPASISCQASESLVHSNRNTYLHWYLQKPGQSPQLLIYKVSNRFSGVPDRFSGSGSGTDFTLKISRVEAEDVGVYYCSQNTHVPPTFGQGTKVEIERTVAAPSVFIFPPSDEQLKSGTASVVCLLNNFYPREAKVQWKVDNALQSGNSQESVTEQDSKDSTYSLSSTLTLSKADYEKHKVYACEVTHQGLSSPVTKSFNRGEC",105 relative (HeCon Ab = 100),91.6 relative (HeCon Ab = 100)
"GpH7-A5/GpH7-B3 variant N325_15Y/GpL16-k0 (antibody, human IgG1, kappa, heterodimerized IgG1, mutation in one H chain only; also called He Ab) heavy 1: not shown heavy 2: not shown light: DIVMTQSPLSLPVTPGEPASISCQASESLVHSNRNTYLHWYLQKPGQSPQLLIYKVSNRFSGVPDRFSGSGSGTDFTLKISRVEAEDVGVYYCSQNTHVPPTFGQGTKVEIERTVAAPSVFIFPPSDEQLKSGTASVVCLLNNFYPREAKVQWKVDNALQSGNSQESVTEQDSKDSTYSLSSTLTLSKADYEKHKVYACEVTHQGLSSPVTKSFNRGEC",101 relative (HeCon Ab = 100),99.5 relative (HeCon Ab = 100)
"GpH7-A5/GpH7-B3 variant P331_02A/GpL16-k0 (antibody, human IgG1, kappa, heterodimerized IgG1, mutation in one H chain only; also called He Ab) heavy 1: not shown heavy 2: not shown light: DIVMTQSPLSLPVTPGEPASISCQASESLVHSNRNTYLHWYLQKPGQSPQLLIYKVSNRFSGVPDRFSGSGSGTDFTLKISRVEAEDVGVYYCSQNTHVPPTFGQGTKVEIERTVAAPSVFIFPPSDEQLKSGTASVVCLLNNFYPREAKVQWKVDNALQSGNSQESVTEQDSKDSTYSLSSTLTLSKADYEKHKVYACEVTHQGLSSPVTKSFNRGEC",106 relative (HeCon Ab = 100),99.5 relative (HeCon Ab = 100)
